In the DeepSol protein solubility set:

Assay: soluble on expression in E. coli; label from the status in PepcDB or PDB records

MTSFTGITAVANATNEMAMFKQAMKEVAAHPEWMSSRQIERQRWNPYSMEGGSTCAISGENFAIVASDTRMTQNDINILTRDAEKIQILNDNIILTTSGFYGDVLQLKKVLQSRLHKYRFDYRSDMSVDLCAELLSRNLYYRRFFPYYTGAILAGIDEHGKGAVFSYDPIGCIERLGYSASGAAEPMIIPFLDCQIGHVTLSEGYERPELTLDRAISLMKDSFRGAAEREISTGDKIHLVIAEAGKPVVVKFLPLRED
soluble on expression in E. coli: not soluble

MTGPVTRADPTPGLRTGRRPGNPDTRSRILAAARKLFAQNGFDKTSVRSVATGAGVDSALIHHYFGTKRELFLASVDIPVDPTQVIAPVLDIPTGEVGSHLARAVFSVWESPHKPAVVAAFRSAMAGNEPNLIRTFLLEVVLRDLGPRVDEPPGTGMLRMQLVASQMAGVLVTRYILEFEPLASLPVDDLVAIVGPTLQRYLTGALP
soluble on expression in E. coli: not soluble

MGSSIASSLMDPTQYYSQFISLQKASLEKAKTPYQNQISSYQSRIDLYASLKNALSDSLKTMSSFTTYESKTKLATSSNETSFTVSSTSSSVNGSYSIEVQNLATADT
soluble on expression in E. coli: not soluble

MGSDKIHHHHHHMRLILSQCLANLSVRFLMNRNSYNKIAHLWNVARNGFFGREREYLDAILSVAPIGSTILDLGCGTGRPMAEYIVSRGRCVLGVDQSEEMLRLARQKLPHEQWVLSSIESYEPVEGYHGALLWDSLFHIRRTEHELIVSKVVRGLPSGGRLMLTVGGSAHPEFTDFMYGEEFYYDSNTPQETETFLQRLSCRMVIGEYMNLPDGGRDKGRYAIVAEKI
soluble on expression in E. coli: not soluble

PRVELEIPEDVDAEQDHLDITVEGDNGSVTRRLWYPDIDVSVDGDTVVIESDEDNAKTMSTIGTFQSHIENMFHGVTEGWEYGMEVFYSHFPMQVNVEGDEVVIENFLGEKAPRRTTIHGDTDVEIDGEELTVSGPDIEAVGQTAADIEQLTRINDKDVRVFQDGVYITRKPNRGDA
soluble on expression in E. coli: soluble

MGSDKIHHHHHHMQALERDYGHGDEVASHCHAEDQLIYAASGVMRVSSEGGSWVIPGGHALWMPAGVSHAIRMKGVVCMRTLLLDAHIERCQVIVVSGLLRELILAASRVLNLRDGAHARALILYELAAARRIDAFVPTPQHARLRAWCERFLQDPAQDLTLEQCGAQLNMSARSVARLFQREVGMSYGQWRARARVMLSQQCLADGKPILNVALEHGYQSASAFTAMFKRILGHAPSDWQNGTAREY
soluble on expression in E. coli: not soluble

MSSPPPARSGFYRQEVTKTAWEVRAVYRDLQPVGSGAYGAVCSAVDGRTGAKVAIKKLYRPFQSELFAKRAYRELRLLKHMRHENVIGLLDVFTPDETLDDFTDFYLVMPFMGTDLGKLMKHEKLGEDRIQFLVYQMLKGLRYIHAAGIIHRDLKPGNLAVNEDCELKILDFGLARQADSEMTGYVVTRWYRAPEVILNWMRYTQTVDIWSVGCIMAEMITGKTLFKGSDHLDQLKEIMKVTGTPPAEFVQRLQSDEAKNYMKGLPELEKKDFASILTNASPLAVNLLEKMLVLDAEQRVTAGEALAHPYFESLHDTEDEPQVQKYDDSFDDVDRTLDEWKRVTYKEVLSFKPPRQLGARVSKETPL
soluble on expression in E. coli: soluble

GPGSMDESNRVPTGEAPSDEPPLKVRRHEGGHGELRETSSGDTNPQGATLFIRCTSIHGRGELLNGFISEHREALGVAKWYNVAGDESDGRCVPTLRTDAPFECVYVRSSRKPYFLLEFNEKGDVAKKFVEKLVGLRNTLYKGSPVFVEVAKGGLTVATERLKLEKRDAARRSATAVPLSFSSDKPTGPTAFVPRAVRKR
soluble on expression in E. coli: soluble

MDIISLRKSPQYLEEAIAYFQRKWADENSRMVYDNCFRTCLESESPLPQWYLLINGEGEIIGCAGLATNDFNSRMDLYPWLVALFIEEQYRGHNYGNLLIKAVEEDTRRLGFGNLYLCTTHTGYYEHFNFVYIGDCYHPWGEHTR
soluble on expression in E. coli: not soluble

MGSDKIHHHHHHMLIYHYTTVDTFLKILDSKAIWASDLSKMNDPQEFTIGIELIKKFYQKKFPDLLHWFENDRFVGLDNEQLLLGCSFSENPDDLSQWRAYGDDGKGVVIGINRRILSASNTLTIPAFYKKDERTASFVHFHKVIYDKQEFENSVKELLDNIGDFINDTVESFKLSIGLSRLACSFKSDFYKTEQEIRAILEHSKRSDIYLDESLKKHKLFDVKFRLSQFGLVPYCKVNLSNADASSIQTVKLGPKCNISKKDLEFMLLATGNKDILVSTSAGQYR
soluble on expression in E. coli: not soluble

MTDKTIAFSLLDLAPIPEGSSAREAFSHSLDLARLAEKRGYHRYWLAEHHNMTGIASAATSVLIGYLAANTTTLHLGSGGVMLPNHLPLVIAEQFGTLNTLYPGRIDLGLGRAPGSDQRTMMALRRHMSGDIDNFPRDVAELVDWFDARDPNPHVRPVPGYGEKIPVWLLGSSLYSAQLAAQLGLPFAFASHFAPDMLFQALHLYRSNFKPSARLEKPYAMVCINIIAADSNRDAEFLFTSMQQAFVKLRRGETGQLPPPIQNMDQFWSPSEQYDVQQALSMSLVGDKAKVRHGLQSILRETDADEIMVNGQIFDHQARLHSFELAMDVKEELLG
soluble on expression in E. coli: not soluble

MKPSLRIYRYPPPPSQRTPCALTIGNFDGVHLGHQAILARVRQEARARGLVPAVMTFEPHPREYFATLNRRPELAPTRISGLRDKLQALAAAGIEQVAVERFDARLAEMSANAFIEDLLVAGLQTRWLLVGEDFRYGHKRSGDIDLLREAGLAHGFEVCTLADITDRQGHRISSSEVRTALAVGDLDRAAQLLGQPFHISGHVIHGRKLGRELGFPTMNLRVAPRCATRSGIYVVRVLGLQDRPLPAVASLGVRPTVEDRGRVLLEAHLLDESLDAYGKLVRVEFLHKLRDEEKFADLPSLTAAIAQDAQNARAYFAVHGL
soluble on expression in E. coli: not soluble

MAAAGTLERSFVELSGAERERPRHFREFTVCSIGTANAVAGAVKYSESAGGFYYVESGKLFSVTRNRFIHWKTSGDTLELMEESLDINLLNNAIRLKFQNCSVLPGGVYVSETQNRVIILMLTNQTVHRLLLPHPSRMYRSVSWLSAISFISQITLGVTNVVLERCLLELKEIWILVIPHQAYFDSYRLKLEHHHHHH
soluble on expression in E. coli: not soluble

SKKTVEFVDYVNPLMGTESTFAFSHGNTYPAVAVPWGMNFWSPQTGENGSGWMYTYTDSLMRGFRQTHQPSPWINDYGTFSIMPLAGELKMSHKERLVPFSHQQEKATPYNYSVTFNNGLQTSLSATSRGAVFEVSFPEKEDQYVVVDAYNGGSSITIEPEKRLVKGATRYNNGGVPDNFANYFMMEFSHPVIEYGTYNGDTLLHHQTDVAADYTCAYLKFDVPAGEKLTIRTASSFISPEQAAINFNREVADADVQLISGKAREQWNNYLGRVEAEGGTDEQLRTFYSCLYRTLLFPREFYEFDSQGNPVYYSPYDGNVHDGYMYTDNGFWDTFRAVHPLFTLLYPEVSERVTQSIINAYNESGFMPEWASPGHRGCMIGNNSVSLLVDAWMKGIQTVDAEKALEAMIHQTQARHAEIASVGRDGFEYYDKLGYVPYPEVPEATAKTLEYAYADWCIARFAESLGKQDIADQYYQKAPNYRNLYYPEHGFMWTKDAKGNWRDRFDATEWGGPFTEGSSWHWTWSVFHDPEGLSELMGGHEPMIARLDSMFVAPNTYNYGTYGFVIHEIAEMVALNMGQYAHGNQPVQHAIYLYDYIGQPWKTQYHLRNVMDKLYNSGSKGYCGDEDNGQTSAWYVFSAMGFYPVCPGMPEYAIGSPLFKKVTLHLPEGKNFVVSAADNAADRPYIRKALLNGQEFTRNYLTHDELKQGGELNLSMDSVPNQQRGTQPADFPYSYSK
soluble on expression in E. coli: soluble

AIALWKLVENVKYEDIYEDRHDGVPSHSSRLSQLGSVSQGPYSSAPPLSHTPSSDFQPPYFPPPYQPLPYHQSQDPYSHVSDPYSLNALHQPQQHPWGSRQRQDLQGTESGGLLPQPRASLPQLSGLDPRRDYSTVRRPDVLLHSTHHGLEAGMGDGLSLHGLAHGMDDVQAVEDLNGAMNILDRTPLGNSRPSPILEPGIQSCLSHFSFITHGFGSPAICAALTALQNYLTEALKGLDKMFLNNPTPNRHTPADGSKGGEKEEKHRK
soluble on expression in E. coli: soluble

MSLTTLVNLTPTKEQRKYQEDELIAFLDLQMNTFTANSENNDEAPSLLKKETSFNTDIWIENLFKFGFKKVILTAKLNNGICLWQSNCSKVNINTFSLENNYDDLVKKVSKSCKKFGLKFGIHLTLKDYLTLNLTPEEYDNYYTSQLKELMTNYSQISEVIMDMTSLDEYYDSLDFERYFKVVKEINPKCMISSPIGPDVRWTYYSDIESSKNYFYSSINLDLLKEDFNNEEIRKGNIYGDTWIVGESIYSLSDCLNHNKDSLSNLKHVYNNSLGRNTNLVLVLSPNTDGLLNHNELSLLSDFSKYIKETFSNNLIKGSSILATNSSSSDSYNLIDDYKKSYWIANENAVNPYIEIDFKTITEFNILEIREWIAEGQNVEEFKVYAYNNGWFELYNGTSIGYRHIAKLNNIKTDKIKISFTKYKNPPMINHIGAYLGEGHHHHHH
soluble on expression in E. coli: soluble

MAHHHHHHMECGYSNEGKFHQVVLTIKEKIEKHDLSKWKDIVKPEEGPKYDEYFERLLREGNQEKDKNGKDTEGKDTHEKNTHDEGVHGKDDLSAEQVEKTPSHEYQQTEDEENPKKFQLNKEFFDKINNKEKFYFLLNIKEMMETSWLLAQKRLEGIKVEEKSKSVNVQDLLNYSQKIADTTCAPPECDNINDRIMHQEYYPNYHFLNFVNVEEIHLSKLFQLQKYSTVCFPPIITIQEGKDNMLVLHISCSTPHATIYYKVNDETNEQIYNTDEKPKIRKRKKINVYAWSVKNGHIKSRISCISKSYKVEEDDSFSLSDNFPNKDQGEQPSGFSKTGTECNAPGSKPSQITNVFKNLGFLLSRKKEKTEESSSNGDSSSEA
soluble on expression in E. coli: not soluble

MGSDKIHHHHHHMIFVPNENNDPRVNLAIETYLLTEMPLDEPILLFYINEPSIIIGRNQNTIEEINKEYVDEHGIHVVRRLSGGGAVYHDHGNLNFSFIMPDDGNSFRDFAKVTQPIIQALHDLGVEGAELKGRNDLVINDMKFSGNAMYATNGRMFAHGTLMFDSDIDEVVNTLKVRKDKIESKGIKSVRSRVTNIKPFLSEDKQEMTTEEFRQEILLKIFGVDSIDQVKTYELTDQDWAAINKISEQYYRNWDWNYGKSPAFNLERRHRFPIGSIEMKMNVADGAIQEIKIFGDFFGLGEIKDVEDILTGVKYDKASLEEAIDQIDVKKYFGNIEKEDLLGLIY
soluble on expression in E. coli: not soluble

MKTLEAIKKELGEYEGKNIKIMEVCGTHTSSIFKNGIRSLISPRIQLISGPGCPVCVTASSYIDRLVEYSLKDNHCVLTFGDMMKVKGHKLSLTEAKATGGNVKILYSPLSAVKIAIKSPETQFIFAAVGFETTAPIYALMIEEIIKNNIKNLKLMTSIKTIIPAISYICENEKNIDAFLCPGHVSVIIGSSVYTDMALKYRKPFVIGGFEGGHIIAAIYEIIRQISNNEYSMKNMYQSAVSPEGNQKAKSLIDKYFEAADDYWRGIGIIKNSGLRLRTEYRDFDAGSTIFEDADAAPSGCKCADVILGRITPAQCPLFGKACTPLNAVGACMVSSEGACGIWYRNCEV
soluble on expression in E. coli: soluble

MAETIISLLSPTLDIKSPYYFNPDYLHQFNMHTNTAIDKLSEAKDNYAIWKLRFFDLLQFTNKTGFIDGTLPKPDPSSPYYEPWKQCNAIVLHWLSNTVTDTLQNHVLQAETVHKAWEDLRRIFVPCIDFKIYELRQRLATLRQGGDSVAEYFGKLSKAWLELKAYDPVQECKCGGCDCESEKRATEAREKEQRYAFLMGLNKEFDYVKMKVMHKKIPPSVYQAYEMVVYSEAMMKWKMGGRI
soluble on expression in E. coli: soluble

MNHRDKQIDSGSGSGENRRTYDCDICKRGFTNPQALGGHNNIHRRERERYPSSSSSSHSFPFSLPLPSQSPSSSTNFTNPPPYFPTIESYLHQGSQPPINPSHNTQYFGSSSSSRGGGRFAQGASHDLNLSLGLGSMNEDDDTHRSPPETGGSQPQDGDLDLDLRLGGHRHH
soluble on expression in E. coli: soluble

DELCVVCGDKATGYHYRCITCEGCKGFFRRTIQKNLHPSYSCKYEGKCVIDKVTRNQCQECRFKKCIYVGMATDLVLDDSKRLAKRKLIEENREKRRREELEK
soluble on expression in E. coli: soluble
